Measurements from article PMC10987677 (The EMBO Journal, 2024).

Target: T1, IFT54^CH (IFT54 residues 1-137) (human, UniProt Q8TDR0 1-137)
T1 construct: IFT54 (IFT-B subunit), human, CH domain, residues 1-137; also called IFT54 CH domain; source: baculovirus system, purified (IgG Sepharose, released by TEV protease); not shown: ZZ, N-terminal, cleaved
T1 sequence (looked up): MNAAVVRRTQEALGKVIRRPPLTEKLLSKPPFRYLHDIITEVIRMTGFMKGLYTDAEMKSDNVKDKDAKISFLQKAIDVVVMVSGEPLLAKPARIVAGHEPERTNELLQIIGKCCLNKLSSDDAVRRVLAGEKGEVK
Assay: pull-down; ZZ-SNAP-GST-WDR60^355-449 immobilized on IgG Sepharose 6; purified IFT54^CH at 4.6 µM flowed over in wash buffer (30 mM HEPES pH 7.4, 150 mM KCl, 1 mM EGTA, 1 mM DTT, 10% glycerol); TEV elution, SDS-PAGE, Sypro Red
Details: both partners purified

B1: ZZ-SNAP-GST-WDR60^355-449 (domain or fragment, human, UniProt Q8WVS4 355-449, looked up)
chain: IEKEETDLENARADAYTASCEDDFEDYEDDFEVCDGDDDESSNEPESREKLEELPLAQKKEIQEIQRAINAENERIGELSLKLFQKRGRTEFEKE
notes: WDR60/DYNC2I1, human, residues 355-449 of the N-terminal extension; released by TEV protease afterwards for SDS-PAGE; source: baculovirus system, immobilized on IgG Sepharose 6 resin and washed; not shown: ZZ, N-terminal, kept; SNAP, N-terminal, kept; GST, N-terminal, kept
- binding result: binds
